# Data from patent publication US8383117.
# B1: VB1-008 monoclonal antibody (antibody, V domains shown)
# VH: QVQLQELGPRLVRPSQTLILTCTVSGGSVSGDEYYWSWLRQTPGKGLEWIGYMSYRGSSYYSPSLQSRVTIAVDRSKNEFSLKLTSVTAADAAVYFCARKYCGGDCRSGFDIWGRGTMVTVAS
# VL: YELTQPPSVSVSPGQKAFITCSGDNLGNKYVCWYQQKPGQSPVLVIYEDTKRPSGIPERFSASNSGNTATLTISGTQPIDEADYYCQAWDSRTEIFGTGTKVTVLS
# notes: also called 17P2/C12
# Legend:
# [1] = biological target: T1, CD44E (CD44 isoform 3, epithelial form) (human, UniProt P16070 21-742); test: flow cytometry, A-375 cells
# T1 construct: also called CD44v8-10; VB1-008 Ag
# T1 sequence (P16070 other isoform, or with tags, fused parts or gaps limits assumed): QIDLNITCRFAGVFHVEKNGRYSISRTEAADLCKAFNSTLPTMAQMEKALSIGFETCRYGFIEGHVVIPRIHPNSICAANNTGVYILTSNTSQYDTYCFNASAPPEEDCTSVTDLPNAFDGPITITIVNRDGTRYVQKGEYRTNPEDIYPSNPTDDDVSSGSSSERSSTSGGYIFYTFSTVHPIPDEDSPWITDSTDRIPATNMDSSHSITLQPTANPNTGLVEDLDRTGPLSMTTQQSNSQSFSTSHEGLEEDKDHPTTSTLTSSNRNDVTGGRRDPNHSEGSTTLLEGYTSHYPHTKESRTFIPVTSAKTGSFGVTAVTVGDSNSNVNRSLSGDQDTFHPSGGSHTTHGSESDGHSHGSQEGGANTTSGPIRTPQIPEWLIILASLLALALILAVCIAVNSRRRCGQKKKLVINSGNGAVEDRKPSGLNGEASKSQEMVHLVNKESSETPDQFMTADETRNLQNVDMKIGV
# [2] = biological target: T1, CD44E (CD44 isoform 3, epithelial form); test: flow cytometry, MB231 cells
# Source text: (§1) Appropriate isotype-matched controls were also used in the study.
# [3] = biological target: T1, CD44E (CD44 isoform 3, epithelial form); test: flow cytometry, MCF-7 cells
# Source text: as §1
# [4] = biological target: T1, CD44E (CD44 isoform 3, epithelial form); test: flow cytometry, RAMOS cells
# [5] = biological target: T1, CD44E (CD44 isoform 3, epithelial form); test: flow cytometry, MB435S cells
# Source text: as §1
# [6] = biological target: T1, CD44E (CD44 isoform 3, epithelial form); test: flow cytometry, A-375 cells; control 4B5-IgG
# Source text: as §1
# [7] = biological target: T1, CD44E (CD44 isoform 3, epithelial form); test: flow cytometry, MB231 cells; control 4B5-IgG
# Source text: as §1
# [8] = biological target: T1, CD44E (CD44 isoform 3, epithelial form); test: flow cytometry, MCF-7 cells; control 4B5-IgG
# Source text: as §1
# [9] = biological target: T1, CD44E (CD44 isoform 3, epithelial form); test: flow cytometry, RAMOS cells; control 4B5-IgG
# Source text: as §1
# [10] = biological target: T1, CD44E (CD44 isoform 3, epithelial form); test: flow cytometry, MB435S cells; control 4B5-IgG
# Source text: as §1
# [11] = biological target: T1, CD44E (CD44 isoform 3, epithelial form); test: flow cytometry, PANC-1 cells; control 4B5-IgG
# Source text: as §1
# [12] = biological target: T1, CD44E (CD44 isoform 3, epithelial form); test: flow cytometry, A-375 cells (very positive line)
# [13] = biological target: T1, CD44E (CD44 isoform 3, epithelial form); test: flow cytometry, MCF-7 cells (weakly positive line)
# [14] = biological target: T1, CD44E (CD44 isoform 3, epithelial form); test: flow cytometry, RAMOS cells (called a negative line)
# [15] = biological target: T1, CD44E (CD44 isoform 3, epithelial form); test: flow cytometry, DAUDI cells (called antigen-negative)
# [16] = biological target: T1, CD44E (CD44 isoform 3, epithelial form); test: as above; remark: listed apart in the source
# [17] = biological target: T1, CD44E (CD44 isoform 3, epithelial form); test: flow cytometry, MDA-MB-435S cells (very positive line)
# [18] = biological target: T1, CD44E (CD44 isoform 3, epithelial form); test: flow cytometry, MDA-MB-231 cells (moderately positive line)
# [19] = biological target: T1, CD44E (CD44 isoform 3, epithelial form); test: flow cytometry, PANC-1 cells (no antigen purified from this line)
# [20] = biological target: T1, CD44E (CD44 isoform 3, epithelial form); test: flow cytometry, DAUDI cells (called antigen-negative); control 4B5-IgG
# [21] = biological target: T1, CD44E (CD44 isoform 3, epithelial form); test: flow cytometry, A-375 cells kept on ice for 120 min; over human IgG (4B5)
# [22] = biological target: T1, CD44E (CD44 isoform 3, epithelial form); test: flow cytometry, A-375 cells, surface-bound antibody after 60 min at 37 °C
# [23] = biological target: T1, CD44E (CD44 isoform 3, epithelial form); test: flow cytometry, A-375 cells, surface-bound antibody after 120 min at 37 °C
# [24] = biological target: T1, CD44E (CD44 isoform 3, epithelial form); test: flow cytometry, PANC-1 cells (called a negative line in the immunoprecipitation)
# [25] = biological target: T1, CD44E (CD44 isoform 3, epithelial form); test: flow cytometry saturation curve on A-375 tumor cells, Lineweaver-Burk; antigen on the cells identified later in the filing as CD44E
# Procedure: Values and graphical analysis were generated using Sigma Plot (Jandel Scientific, San Rafael, Calif.). The inverse of the determined median fluorescence was plotted as a function of the inverse of antibody concentration to determine KD by the Lineweaver-Burk method. A straight line was generated and the KD was calculated from the slope of the curve.
binder,measurement,setting,value
B1,Flow results,[1],11.1 fold
same,Flow results,[2],14.2 fold
same,Flow results,[3],4.63 fold
same,Flow results,[4],1.1 fold
same,Flow results,[5],15.8 fold
same,fold-increase in median fluorescence over isotype-matched control,[6],13.3 fold
same,fold-increase in median fluorescence over isotype-matched control,[7],14.2 fold
same,fold-increase in median fluorescence over isotype-matched control,[8],4.63 fold
same,fold-increase in median fluorescence over isotype-matched control,[9],1.1 fold
same,fold-increase in median fluorescence over isotype-matched control,[10],15.8 fold
same,fold-increase in median fluorescence over isotype-matched control,[11],8.3 fold
same,increase in median fluorescence over isotype-matched control (MF),[12],13.3 fold
same,increase in median fluorescence over isotype-matched control (MF),[13],4.67 fold
same,increase in median fluorescence over isotype-matched control (MF),[14],1.3 fold
same,increase in median fluorescence over isotype-matched control (MF),[15],1.1 fold
same,Flow results,[16],1 fold
same,increase in median fluorescence over isotype-matched control (MF),[17],15.8 fold
same,increase in median fluorescence over isotype-matched control (MF),[18],14.2 fold
same,Flow results,[19],8.95 fold
same,fold-increase in median fluorescence over isotype-matched control,[20],1 fold
same,Fold-increase in MF,[21],31.7 fold
same,Fold-increase in MF,[22],13.5 fold
same,Fold-increase in MF,[23],12 fold
same,increase in median fluorescence over isotype-matched control (MF),[24],8.3 fold
same,Kd,[25],58.8 nM
